Where a chain is given by its changes, count along the chain named.
T1: DFNB31_3, Q9P202
T1 sequence (Q9P202 811-907, limits assumed, looked up): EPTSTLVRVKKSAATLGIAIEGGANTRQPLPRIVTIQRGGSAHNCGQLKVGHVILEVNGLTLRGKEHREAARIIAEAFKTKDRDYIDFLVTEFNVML

T2: GRIP1_4, Q9Y3R0
T2 sequence (Q9Y3R0 467-571, limits assumed, looked up): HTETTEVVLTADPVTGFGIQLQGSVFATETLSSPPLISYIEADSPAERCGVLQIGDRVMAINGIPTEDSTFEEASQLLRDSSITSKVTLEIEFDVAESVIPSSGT

T3: GRIP1_7, Q9Y3R0
T3 sequence (Q9Y3R0 999-1096, limits assumed, looked up): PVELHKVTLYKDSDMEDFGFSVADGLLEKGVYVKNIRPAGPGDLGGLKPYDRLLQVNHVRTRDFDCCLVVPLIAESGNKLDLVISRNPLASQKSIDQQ

T4: LIN7A, O14910
T4 sequence (O14910 103-200, limits assumed, looked up): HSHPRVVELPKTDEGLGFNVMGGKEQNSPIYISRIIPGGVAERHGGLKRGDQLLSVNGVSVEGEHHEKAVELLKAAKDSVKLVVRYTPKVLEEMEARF

T5: LIN7C, Q9NUP9
T5 sequence (Q9NUP9 88-185, limits assumed, looked up): T4 sequence (O14910 103-200, limits assumed, looked up) with D13E, V20I, V40I, E42D, K77Q, D78G, S79K, A96S

T6: MPDZ_5, O75970
T6 sequence (O75970 695-796, limits assumed, looked up): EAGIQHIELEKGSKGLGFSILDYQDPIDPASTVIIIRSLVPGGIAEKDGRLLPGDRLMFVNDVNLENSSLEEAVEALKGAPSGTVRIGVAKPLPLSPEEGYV

T7: NHERF3_3, Q5T2W1
T7 sequence (Q5T2W1 238-333, limits assumed, looked up): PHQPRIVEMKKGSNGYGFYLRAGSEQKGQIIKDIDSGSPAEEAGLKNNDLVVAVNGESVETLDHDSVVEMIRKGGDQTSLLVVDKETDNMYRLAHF

T8: PDZD2_2, O15018
T8 sequence (O15018 329-429, limits assumed, looked up): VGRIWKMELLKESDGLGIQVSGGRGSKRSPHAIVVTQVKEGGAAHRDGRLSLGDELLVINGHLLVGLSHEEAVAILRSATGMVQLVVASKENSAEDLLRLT

T9: PTPN13_1, Q12923
T9 sequence (Q12923 1088-1188, limits assumed, looked up): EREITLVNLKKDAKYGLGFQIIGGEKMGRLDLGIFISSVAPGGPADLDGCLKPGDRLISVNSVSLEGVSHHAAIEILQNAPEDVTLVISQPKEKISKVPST

T10: RAPGEF6, Q8TEU7
T10 sequence (Q8TEU7 525-625, limits assumed, looked up): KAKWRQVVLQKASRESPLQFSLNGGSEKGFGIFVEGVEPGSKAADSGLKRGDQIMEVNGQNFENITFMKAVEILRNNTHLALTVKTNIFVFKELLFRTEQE

T11: SNTB1, Q13884
T11 sequence (Q13884 107-205, limits assumed, looked up): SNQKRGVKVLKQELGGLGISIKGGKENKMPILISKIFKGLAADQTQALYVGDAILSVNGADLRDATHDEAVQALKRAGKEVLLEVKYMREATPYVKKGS

T12: SNTG1, Q9NSN8
T12 sequence (Q9NSN8 52-150, limits assumed, looked up): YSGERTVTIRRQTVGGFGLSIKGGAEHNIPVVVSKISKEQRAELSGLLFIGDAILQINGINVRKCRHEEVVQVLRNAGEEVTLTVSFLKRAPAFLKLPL

T13: SYNJ2BP, P57105
T13 sequence (P57105 8-110, limits assumed, looked up): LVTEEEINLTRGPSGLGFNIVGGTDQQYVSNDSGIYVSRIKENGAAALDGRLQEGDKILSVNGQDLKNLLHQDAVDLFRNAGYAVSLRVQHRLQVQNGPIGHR

B1: CLDN19, Q8N6F1 (peptide)
chain: PASAKGPLGV
B2: EFNB3, Q15768 (peptide)
chain: QSPPNIYYKV

biological target: AHNAK1, Q09666; experiment: holdup assay; parameters: key: below the threshold = too weak to quantify, mostly under pKd 3.1 to 4; conditions: plain residues with an end cap or a label only (N-terminal biotin on a linker: ado-ado)
Sequence (Q09666 4-100): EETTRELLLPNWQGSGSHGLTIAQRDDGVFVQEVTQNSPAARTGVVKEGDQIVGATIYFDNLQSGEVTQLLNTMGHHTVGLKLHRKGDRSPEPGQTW

Row | Binder | pKd
1 | B1 | below the threshold
2 | B2 | below the threshold

biological target: T1, DFNB31_3, Q9P202; experiment: holdup assay; parameters: key: below the threshold = too weak to quantify, mostly under pKd 3.1 to 4; conditions: plain residues with an end cap or a label only (N-terminal biotin on a linker: ado-ado)

Row | Binder | pKd
3 | B1 | below the threshold
4 | B2 | 4.1

biological target: FRMPD2_2, Q68DX3; experiment: holdup assay; parameters: key: below the threshold = too weak to quantify, mostly under pKd 3.1 to 4; conditions: plain residues with an end cap or a label only (N-terminal biotin on a linker: ado-ado)
Sequence (Q68DX3 944-1038): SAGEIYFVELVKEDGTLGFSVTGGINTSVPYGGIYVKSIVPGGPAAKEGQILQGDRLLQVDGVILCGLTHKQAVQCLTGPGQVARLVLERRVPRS

Row | Binder | pKd
5 | B1 | below the threshold
6 | B2 | below the threshold

biological target: FRMPD3, Q5JV73; experiment: holdup assay; parameters: key: below the threshold = too weak to quantify, mostly under pKd 3.1 to 4; conditions: plain residues with an end cap or a label only (N-terminal biotin on a linker: ado-ado)
Sequence (Q5JV73 12-100): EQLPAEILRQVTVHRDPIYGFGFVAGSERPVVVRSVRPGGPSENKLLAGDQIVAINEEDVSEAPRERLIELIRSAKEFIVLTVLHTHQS

Row | Binder | pKd
7 | B1 | below the threshold
8 | B2 | below the threshold

biological target: GORASP2, Q9H8Y8; experiment: holdup assay; parameters: key: below the threshold = too weak to quantify, mostly under pKd 3.1 to 4; conditions: plain residues with an end cap or a label only (N-terminal biotin on a linker: ado-ado)

Row | Binder | pKd
9 | B1 | below the threshold
10 | B2 | 4.99

biological target: GRID2IP_1, A4D2P6; experiment: holdup assay; parameters: key: below the threshold = too weak to quantify, mostly under pKd 3.1 to 4; conditions: plain residues with an end cap or a label only (N-terminal biotin on a linker: ado-ado)
Sequence (A4D2P6 1-87): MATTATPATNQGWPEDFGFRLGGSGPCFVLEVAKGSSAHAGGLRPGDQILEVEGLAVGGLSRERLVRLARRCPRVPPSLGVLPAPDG

Row | Binder | pKd
11 | B1 | below the threshold
12 | B2 | below the threshold

biological target: T2, GRIP1_4, Q9Y3R0; experiment: holdup assay; parameters: key: below the threshold = too weak to quantify, mostly under pKd 3.1 to 4; conditions: plain residues with an end cap or a label only (N-terminal biotin on a linker: ado-ado)

Row | Binder | pKd
13 | B1 | below the threshold
14 | B2 | below the threshold

biological target: T3, GRIP1_7, Q9Y3R0; experiment: holdup assay; parameters: key: below the threshold = too weak to quantify, mostly under pKd 3.1 to 4; conditions: plain residues with an end cap or a label only (N-terminal biotin on a linker: ado-ado)

Row | Binder | pKd
15 | B1 | below the threshold
16 | B2 | 3.67

biological target: Inadl_5, Q8NI35; experiment: holdup assay; parameters: key: below the threshold = too weak to quantify, mostly under pKd 3.1 to 4; conditions: plain residues with an end cap or a label only (N-terminal biotin on a linker: ado-ado)
Sequence (Q8NI35 673-780): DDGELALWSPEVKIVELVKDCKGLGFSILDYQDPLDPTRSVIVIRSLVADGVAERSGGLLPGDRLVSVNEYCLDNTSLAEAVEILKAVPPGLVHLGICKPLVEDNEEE

Row | Binder | pKd
17 | B1 | below the threshold
18 | B2 | below the threshold

biological target: T4, LIN7A, O14910; experiment: holdup assay; parameters: key: below the threshold = too weak to quantify, mostly under pKd 3.1 to 4; conditions: plain residues with an end cap or a label only (N-terminal biotin on a linker: ado-ado)

Row | Binder | pKd
19 | B1 | below the threshold
20 | B2 | below the threshold

biological target: T5, LIN7C, Q9NUP9; experiment: holdup assay; parameters: key: below the threshold = too weak to quantify, mostly under pKd 3.1 to 4; conditions: plain residues with an end cap or a label only (N-terminal biotin on a linker: ado-ado)

Row | Binder | pKd
21 | B1 | below the threshold
22 | B2 | below the threshold

biological target: LNX1_3, Q8TBB1; experiment: holdup assay; parameters: key: below the threshold = too weak to quantify, mostly under pKd 3.1 to 4; conditions: plain residues with an end cap or a label only (N-terminal biotin on a linker: ado-ado)
Sequence (Q8TBB1 500-596): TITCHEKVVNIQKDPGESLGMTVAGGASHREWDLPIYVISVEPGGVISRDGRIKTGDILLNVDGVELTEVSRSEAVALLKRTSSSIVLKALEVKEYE

Row | Binder | pKd
23 | B1 | below the threshold
24 | B2 | 4.47

biological target: MAGI2_5, Q86UL8; experiment: holdup assay; parameters: key: below the threshold = too weak to quantify, mostly under pKd 3.1 to 4; conditions: plain residues with an end cap or a label only (N-terminal biotin on a linker: ado-ado)
Sequence (Q86UL8 915-1017): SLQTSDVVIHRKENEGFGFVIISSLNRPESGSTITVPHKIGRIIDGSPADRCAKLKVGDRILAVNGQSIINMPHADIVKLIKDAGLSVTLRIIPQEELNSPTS

Row | Binder | pKd
25 | B1 | below the threshold
26 | B2 | below the threshold

biological target: MAST2, Q6P0Q8; experiment: holdup assay; parameters: key: below the threshold = too weak to quantify, mostly under pKd 3.1 to 4; conditions: plain residues with an end cap or a label only (N-terminal biotin on a linker: ado-ado)
Sequence (Q6P0Q8 1099-1202): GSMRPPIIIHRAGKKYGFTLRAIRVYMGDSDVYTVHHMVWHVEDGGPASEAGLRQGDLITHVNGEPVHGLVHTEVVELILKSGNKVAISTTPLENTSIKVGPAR

Row | Binder | pKd
27 | B1 | below the threshold
28 | B2 | 4.54

biological target: T6, MPDZ_5, O75970; experiment: holdup assay; parameters: key: below the threshold = too weak to quantify, mostly under pKd 3.1 to 4; conditions: plain residues with an end cap or a label only (N-terminal biotin on a linker: ado-ado)

Row | Binder | pKd
29 | B1 | below the threshold
30 | B2 | below the threshold

biological target: T7, NHERF3_3, Q5T2W1; experiment: holdup assay; parameters: key: below the threshold = too weak to quantify, mostly under pKd 3.1 to 4; conditions: plain residues with an end cap or a label only (N-terminal biotin on a linker: ado-ado)

Row | Binder | pKd
31 | B1 | below the threshold
32 | B2 | below the threshold

biological target: T8, PDZD2_2, O15018; experiment: holdup assay; parameters: key: below the threshold = too weak to quantify, mostly under pKd 3.1 to 4; conditions: plain residues with an end cap or a label only (N-terminal biotin on a linker: ado-ado)

Row | Binder | pKd
33 | B1 | below the threshold
34 | B2 | 3.67

biological target: PICK1, Q9NRD5; experiment: holdup assay; parameters: key: below the threshold = too weak to quantify, mostly under pKd 3.1 to 4; conditions: plain residues with an end cap or a label only (N-terminal biotin on a linker: ado-ado)
Sequence (Q9NRD5 17-115): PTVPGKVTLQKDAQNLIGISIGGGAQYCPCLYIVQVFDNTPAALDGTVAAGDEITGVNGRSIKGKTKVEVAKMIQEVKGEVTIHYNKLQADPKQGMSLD

Row | Binder | pKd
35 | B1 | below the threshold
36 | B2 | below the threshold

biological target: T9, PTPN13_1, Q12923; experiment: holdup assay; parameters: key: below the threshold = too weak to quantify, mostly under pKd 3.1 to 4; conditions: plain residues with an end cap or a label only (N-terminal biotin on a linker: ado-ado)

Row | Binder | pKd
37 | B1 | below the threshold
38 | B2 | below the threshold

biological target: T10, RAPGEF6, Q8TEU7; experiment: holdup assay; parameters: key: below the threshold = too weak to quantify, mostly under pKd 3.1 to 4; conditions: plain residues with an end cap or a label only (N-terminal biotin on a linker: ado-ado)

Row | Binder | pKd
39 | B1 | below the threshold
40 | B2 | below the threshold

biological target: T11, SNTB1, Q13884; experiment: holdup assay; parameters: key: below the threshold = too weak to quantify, mostly under pKd 3.1 to 4; conditions: plain residues with an end cap or a label only (N-terminal biotin on a linker: ado-ado)

Row | Binder | pKd
41 | B1 | below the threshold
42 | B2 | below the threshold

biological target: T12, SNTG1, Q9NSN8; experiment: holdup assay; parameters: key: below the threshold = too weak to quantify, mostly under pKd 3.1 to 4; conditions: plain residues with an end cap or a label only (N-terminal biotin on a linker: ado-ado)

Row | Binder | pKd
43 | B1 | below the threshold
44 | B2 | below the threshold

biological target: T13, SYNJ2BP, P57105; experiment: holdup assay; parameters: key: below the threshold = too weak to quantify, mostly under pKd 3.1 to 4; conditions: plain residues with an end cap or a label only (N-terminal biotin on a linker: ado-ado)

Row | Binder | pKd
45 | B1 | below the threshold
46 | B2 | below the threshold

biological target: TJP1_3, Q07157; experiment: holdup assay; parameters: key: below the threshold = too weak to quantify, mostly under pKd 3.1 to 4; conditions: plain residues with an end cap or a label only (N-terminal biotin on a linker: ado-ado)
Sequence (Q07157 416-512): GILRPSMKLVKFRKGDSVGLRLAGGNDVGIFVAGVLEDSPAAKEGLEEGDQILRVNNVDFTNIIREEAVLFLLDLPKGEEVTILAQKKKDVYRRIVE

Row | Binder | pKd
47 | B1 | below the threshold
48 | B2 | below the threshold
